Data on six molecules can be found in patent US20140087995A1 (published 2014).

The target of this test is T1, human calcitonin receptor (human, UniProt P30988 25-474).
T1 construct: whole, on cells; also called hCTR; hCT
T1 sequence (looked up): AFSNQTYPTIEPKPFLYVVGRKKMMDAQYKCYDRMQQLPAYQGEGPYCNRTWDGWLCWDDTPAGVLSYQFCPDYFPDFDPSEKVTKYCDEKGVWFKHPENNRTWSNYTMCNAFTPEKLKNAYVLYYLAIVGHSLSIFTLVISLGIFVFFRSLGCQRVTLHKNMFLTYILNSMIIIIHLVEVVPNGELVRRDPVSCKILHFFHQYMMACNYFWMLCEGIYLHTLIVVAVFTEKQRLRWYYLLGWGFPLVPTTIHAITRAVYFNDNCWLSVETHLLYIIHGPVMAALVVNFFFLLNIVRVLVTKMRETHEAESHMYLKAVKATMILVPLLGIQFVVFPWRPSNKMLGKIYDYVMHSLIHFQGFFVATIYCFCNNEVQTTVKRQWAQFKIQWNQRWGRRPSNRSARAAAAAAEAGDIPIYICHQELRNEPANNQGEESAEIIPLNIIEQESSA
As to the kind of experiment: SPA competition with 125I-calcitonin, membranes of BHK hCTR cells (Assay VII). In outline: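 BHK hCTR membranes 35 ng/μL + SPA beads 0.05 mg/well; buffer 50 mM Hepes pH 7.4, 1 mM CaCl2, 5 mM MgCl₂, 0.1% OA, 0.02% Tween20. 120 min, 25° C., shaking. Scintillation count; IC50 by one-site binding competition.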

Numbered stars: 1 amine (or outer) side, 2 acyl side, 3 side chain; on linkers, the order of the positions; unused ones are H or OH. Bridge positions count the residues as written; N and C are the ends. Side chains are listed from the residue outwards. Ends that are not written are not given here. * marks the point of attachment. C20 diacid = O=C(O)CCCCCCCCCCCCCCCCCCC(=O)*; γGlu = O=C(O)[C@H](CCC(=O)[*:2])N[*:1]

B1: N^ε1-[(4S)-4-carboxy-4-(19-carboxynonadecanoylamino)butanoyl]-[Arg17,Pro21,Pro27,Glu35]-h-amylin (peptide)
peptide: K([γGlu-C20 diacid])CNTATCATQRLANFLRHSSPNFGAIPSSTNVGSETY-NH2
modifications: disulfide 2-7; N-terminus assumed
SMILES: CC[C@H](C)[C@H](NC(=O)[C@H](C)NC(=O)CNC(=O)[C@H](Cc1ccccc1)NC(=O)[C@H](CC(N)=O)NC(=O)[C@@H]1CCCN1C(=O)[C@H](CO)NC(=O)[C@H](CO)NC(=O)[C@H](Cc1c[nH]cn1)NC(=O)[C@H](CCCNC(=N)N)NC(=O)[C@H](CC(C)C)NC(=O)[C@H](Cc1ccccc1)NC(=O)[C@H](CC(N)=O)NC(=O)[C@H](C)NC(=O)[C@H](CC(C)C)NC(=O)[C@H](CCCNC(=N)N)NC(=O)[C@H](CCC(N)=O)NC(=O)[C@@H](NC(=O)[C@H](C)NC(=O)[C@@H]1CSSC[C@H](NC(=O)[C@@H](N)CCCCNC(=O)CC[C@H](NC(=O)CCCCCCCCCCCCCCCCCCC(=O)O)C(=O)O)C(=O)N[C@@H](CC(N)=O)C(=O)N[C@@H]([C@@H](C)O)C(=O)N[C@@H](C)C(=O)N[C@@H]([C@@H](C)O)C(=O)N1)[C@@H](C)O)C(=O)N1CCC[C@H]1C(=O)N[C@@H](CO)C(=O)N[C@@H](CO)C(=O)N[C@H](C(=O)N[C@@H](CC(N)=O)C(=O)N[C@H](C(=O)NCC(=O)N[C@@H](CO)C(=O)N[C@@H](CCC(=O)O)C(=O)N[C@H](C(=O)N[C@@H](Cc1ccc(O)cc1)C(N)=O)[C@@H](C)O)C(C)C)[C@@H](C)O
notes: also called compound 27
A word on the IC50: it is the concentration that inhibits the measured activity by half. On to B1, for which the IC50 came to 34.5 nM.

B2: N^ε1-[(4S)-4-carboxy-4-(19-carboxynonadecanoylamino)butanoyl]-[His14,Arg17,Pro21,Pro27,His35]-h-amylin (peptide)
peptide: K([γGlu-C20 diacid])CNTATCATQRLAHFLRHSSPNFGAIPSSTNVGSHTY-NH2
modifications: disulfide 2-7; N-terminus assumed
SMILES: CC[C@H](C)[C@H](NC(=O)[C@H](C)NC(=O)CNC(=O)[C@H](Cc1ccccc1)NC(=O)[C@H](CC(N)=O)NC(=O)[C@@H]1CCCN1C(=O)[C@H](CO)NC(=O)[C@H](CO)NC(=O)[C@H](Cc1c[nH]cn1)NC(=O)[C@H](CCCNC(=N)N)NC(=O)[C@H](CC(C)C)NC(=O)[C@H](Cc1ccccc1)NC(=O)[C@H](Cc1c[nH]cn1)NC(=O)[C@H](C)NC(=O)[C@H](CC(C)C)NC(=O)[C@H](CCCNC(=N)N)NC(=O)[C@H](CCC(N)=O)NC(=O)[C@@H](NC(=O)[C@H](C)NC(=O)[C@@H]1CSSC[C@H](NC(=O)[C@@H](N)CCCCNC(=O)CC[C@H](NC(=O)CCCCCCCCCCCCCCCCCCC(=O)O)C(=O)O)C(=O)N[C@@H](CC(N)=O)C(=O)N[C@@H]([C@@H](C)O)C(=O)N[C@@H](C)C(=O)N[C@@H]([C@@H](C)O)C(=O)N1)[C@@H](C)O)C(=O)N1CCC[C@H]1C(=O)N[C@@H](CO)C(=O)N[C@@H](CO)C(=O)N[C@H](C(=O)N[C@@H](CC(N)=O)C(=O)N[C@H](C(=O)NCC(=O)N[C@@H](CO)C(=O)N[C@@H](Cc1c[nH]cn1)C(=O)N[C@H](C(=O)N[C@@H](Cc1ccc(O)cc1)C(N)=O)[C@@H](C)O)C(C)C)[C@@H](C)O
notes: also called compound 66
On to B2, for which the IC50 came to 18 nM.

B3: N^ε1-[(4S)-4-carboxy-4-(19-carboxynonadecanoylamino)butanoyl]-[Arg17,Pro21,Pro27,His35]-h-amylin (peptide)
peptide: K([γGlu-C20 diacid])CNTATCATQRLANFLRHSSPNFGAIPSSTNVGSHTY-NH2
modifications: disulfide 2-7; N-terminus assumed
SMILES: CC[C@H](C)[C@H](NC(=O)[C@H](C)NC(=O)CNC(=O)[C@H](Cc1ccccc1)NC(=O)[C@H](CC(N)=O)NC(=O)[C@@H]1CCCN1C(=O)[C@H](CO)NC(=O)[C@H](CO)NC(=O)[C@H](Cc1c[nH]cn1)NC(=O)[C@H](CCCNC(=N)N)NC(=O)[C@H](CC(C)C)NC(=O)[C@H](Cc1ccccc1)NC(=O)[C@H](CC(N)=O)NC(=O)[C@H](C)NC(=O)[C@H](CC(C)C)NC(=O)[C@H](CCCNC(=N)N)NC(=O)[C@H](CCC(N)=O)NC(=O)[C@@H](NC(=O)[C@H](C)NC(=O)[C@@H]1CSSC[C@H](NC(=O)[C@@H](N)CCCCNC(=O)CC[C@H](NC(=O)CCCCCCCCCCCCCCCCCCC(=O)O)C(=O)O)C(=O)N[C@@H](CC(N)=O)C(=O)N[C@@H]([C@@H](C)O)C(=O)N[C@@H](C)C(=O)N[C@@H]([C@@H](C)O)C(=O)N1)[C@@H](C)O)C(=O)N1CCC[C@H]1C(=O)N[C@@H](CO)C(=O)N[C@@H](CO)C(=O)N[C@H](C(=O)N[C@@H](CC(N)=O)C(=O)N[C@H](C(=O)NCC(=O)N[C@@H](CO)C(=O)N[C@@H](Cc1c[nH]cn1)C(=O)N[C@H](C(=O)N[C@@H](Cc1ccc(O)cc1)C(N)=O)[C@@H](C)O)C(C)C)[C@@H](C)O
notes: also called compound 60
Turning to B3, the IC50 turned out to be 31.4 nM.

B4: N^ε1-[(4S)-4-carboxy-4-(19-carboxynonadecanoylamino)butanoyl]-[Arg17,Pro21,Pro27,Lys35]-h-amylin (peptide)
peptide: K([γGlu-C20 diacid])CNTATCATQRLANFLRHSSPNFGAIPSSTNVGSKTY-NH2
modifications: disulfide 2-7; N-terminus assumed
SMILES: CC[C@H](C)[C@H](NC(=O)[C@H](C)NC(=O)CNC(=O)[C@H](Cc1ccccc1)NC(=O)[C@H](CC(N)=O)NC(=O)[C@@H]1CCCN1C(=O)[C@H](CO)NC(=O)[C@H](CO)NC(=O)[C@H](Cc1c[nH]cn1)NC(=O)[C@H](CCCNC(=N)N)NC(=O)[C@H](CC(C)C)NC(=O)[C@H](Cc1ccccc1)NC(=O)[C@H](CC(N)=O)NC(=O)[C@H](C)NC(=O)[C@H](CC(C)C)NC(=O)[C@H](CCCNC(=N)N)NC(=O)[C@H](CCC(N)=O)NC(=O)[C@@H](NC(=O)[C@H](C)NC(=O)[C@@H]1CSSC[C@H](NC(=O)[C@@H](N)CCCCNC(=O)CC[C@H](NC(=O)CCCCCCCCCCCCCCCCCCC(=O)O)C(=O)O)C(=O)N[C@@H](CC(N)=O)C(=O)N[C@@H]([C@@H](C)O)C(=O)N[C@@H](C)C(=O)N[C@@H]([C@@H](C)O)C(=O)N1)[C@@H](C)O)C(=O)N1CCC[C@H]1C(=O)N[C@@H](CO)C(=O)N[C@@H](CO)C(=O)N[C@H](C(=O)N[C@@H](CC(N)=O)C(=O)N[C@H](C(=O)NCC(=O)N[C@@H](CO)C(=O)N[C@@H](CCCCN)C(=O)N[C@H](C(=O)N[C@@H](Cc1ccc(O)cc1)C(N)=O)[C@@H](C)O)C(C)C)[C@@H](C)O
notes: also called compound 35
Regarding B4, the IC50 came to 48.8 nM.

B5: N^ε1-[(4S)-4-carboxy-4-(19-carboxynonadecanoylamino)butanoyl]-[His14,Arg17,Pro21,Pro27,Pro31]-h-amylin (peptide)
peptide: K([γGlu-C20 diacid])CNTATCATQRLAHFLRHSSPNFGAIPSSTPVGSNTY-NH2
modifications: disulfide 2-7; N-terminus assumed
SMILES: CC[C@H](C)[C@H](NC(=O)[C@H](C)NC(=O)CNC(=O)[C@H](Cc1ccccc1)NC(=O)[C@H](CC(N)=O)NC(=O)[C@@H]1CCCN1C(=O)[C@H](CO)NC(=O)[C@H](CO)NC(=O)[C@H](Cc1c[nH]cn1)NC(=O)[C@H](CCCNC(=N)N)NC(=O)[C@H](CC(C)C)NC(=O)[C@H](Cc1ccccc1)NC(=O)[C@H](Cc1c[nH]cn1)NC(=O)[C@H](C)NC(=O)[C@H](CC(C)C)NC(=O)[C@H](CCCNC(=N)N)NC(=O)[C@H](CCC(N)=O)NC(=O)[C@@H](NC(=O)[C@H](C)NC(=O)[C@@H]1CSSC[C@H](NC(=O)[C@@H](N)CCCCNC(=O)CC[C@H](NC(=O)CCCCCCCCCCCCCCCCCCC(=O)O)C(=O)O)C(=O)N[C@@H](CC(N)=O)C(=O)N[C@@H]([C@@H](C)O)C(=O)N[C@@H](C)C(=O)N[C@@H]([C@@H](C)O)C(=O)N1)[C@@H](C)O)C(=O)N1CCC[C@H]1C(=O)N[C@@H](CO)C(=O)N[C@@H](CO)C(=O)N[C@H](C(=O)N1CCC[C@H]1C(=O)N[C@H](C(=O)NCC(=O)N[C@@H](CO)C(=O)N[C@@H](CC(N)=O)C(=O)N[C@H](C(=O)N[C@@H](Cc1ccc(O)cc1)C(N)=O)[C@@H](C)O)C(C)C)[C@@H](C)O
notes: also called compound 62
Turning to B5, the IC50 is 6.17 nM.

B6: N^ε1-[(4S)-4-carboxy-4-(19-carboxynonadecanoylamino)butanoyl]-[Glu14,Arg17,Pro21,Pro27,Arg35]-h-amylin (peptide)
peptide: K([γGlu-C20 diacid])CNTATCATQRLAEFLRHSSPNFGAIPSSTNVGSRTY-NH2
modifications: disulfide 2-7; N-terminus assumed
SMILES: CC[C@H](C)[C@H](NC(=O)[C@H](C)NC(=O)CNC(=O)[C@H](Cc1ccccc1)NC(=O)[C@H](CC(N)=O)NC(=O)[C@@H]1CCCN1C(=O)[C@H](CO)NC(=O)[C@H](CO)NC(=O)[C@H](Cc1c[nH]cn1)NC(=O)[C@H](CCCNC(=N)N)NC(=O)[C@H](CC(C)C)NC(=O)[C@H](Cc1ccccc1)NC(=O)[C@H](CCC(=O)O)NC(=O)[C@H](C)NC(=O)[C@H](CC(C)C)NC(=O)[C@H](CCCNC(=N)N)NC(=O)[C@H](CCC(N)=O)NC(=O)[C@@H](NC(=O)[C@H](C)NC(=O)[C@@H]1CSSC[C@H](NC(=O)[C@@H](N)CCCCNC(=O)CC[C@H](NC(=O)CCCCCCCCCCCCCCCCCCC(=O)O)C(=O)O)C(=O)N[C@@H](CC(N)=O)C(=O)N[C@@H]([C@@H](C)O)C(=O)N[C@@H](C)C(=O)N[C@@H]([C@@H](C)O)C(=O)N1)[C@@H](C)O)C(=O)N1CCC[C@H]1C(=O)N[C@@H](CO)C(=O)N[C@@H](CO)C(=O)N[C@H](C(=O)N[C@@H](CC(N)=O)C(=O)N[C@H](C(=O)NCC(=O)N[C@@H](CO)C(=O)N[C@@H](CCCNC(=N)N)C(=O)N[C@H](C(=O)N[C@@H](Cc1ccc(O)cc1)C(N)=O)[C@@H](C)O)C(C)C)[C@@H](C)O
notes: also called compound 51
As to B6, the IC50 stood at 31.1 nM.
